Source: patent US20240190962A1 (IMMUNOWAKE, published 2024)
Positions count from the first letter of the chain named. In names and notes the source's numbering stands. Where two headings read alike, the source gives them in different places. One block for each binder: values may come before it.

How the values were obtained:
[1] = target: T1, human IL-2 receptor (IL-2Rα, IL-2Rβ, IL-2Rγ) (human, UniProt P01589 22-272; P14784 27-551; P31785 23-369); experiment: cell-based or functional assay
T1 sequence (looked up) 1: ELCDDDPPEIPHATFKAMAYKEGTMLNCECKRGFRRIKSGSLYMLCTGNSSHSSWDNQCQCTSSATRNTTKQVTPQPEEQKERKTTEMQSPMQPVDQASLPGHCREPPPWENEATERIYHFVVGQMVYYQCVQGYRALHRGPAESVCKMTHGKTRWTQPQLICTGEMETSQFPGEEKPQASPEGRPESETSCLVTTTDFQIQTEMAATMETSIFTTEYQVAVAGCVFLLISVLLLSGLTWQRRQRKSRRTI
T1 sequence (looked up) 2: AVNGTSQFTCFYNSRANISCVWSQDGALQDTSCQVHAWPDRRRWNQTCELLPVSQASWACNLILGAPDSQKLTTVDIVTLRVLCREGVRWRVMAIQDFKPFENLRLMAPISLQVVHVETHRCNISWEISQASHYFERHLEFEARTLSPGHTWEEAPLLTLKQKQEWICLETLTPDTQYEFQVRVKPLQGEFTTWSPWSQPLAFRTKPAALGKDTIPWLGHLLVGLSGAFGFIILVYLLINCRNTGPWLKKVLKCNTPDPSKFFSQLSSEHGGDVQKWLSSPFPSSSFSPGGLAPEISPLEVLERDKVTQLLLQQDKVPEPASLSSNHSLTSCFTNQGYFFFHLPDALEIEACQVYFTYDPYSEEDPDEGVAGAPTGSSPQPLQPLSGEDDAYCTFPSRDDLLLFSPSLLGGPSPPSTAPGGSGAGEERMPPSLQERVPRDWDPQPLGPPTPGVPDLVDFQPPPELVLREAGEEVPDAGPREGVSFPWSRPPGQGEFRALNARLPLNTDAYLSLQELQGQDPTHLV
T1 sequence (looked up) 3: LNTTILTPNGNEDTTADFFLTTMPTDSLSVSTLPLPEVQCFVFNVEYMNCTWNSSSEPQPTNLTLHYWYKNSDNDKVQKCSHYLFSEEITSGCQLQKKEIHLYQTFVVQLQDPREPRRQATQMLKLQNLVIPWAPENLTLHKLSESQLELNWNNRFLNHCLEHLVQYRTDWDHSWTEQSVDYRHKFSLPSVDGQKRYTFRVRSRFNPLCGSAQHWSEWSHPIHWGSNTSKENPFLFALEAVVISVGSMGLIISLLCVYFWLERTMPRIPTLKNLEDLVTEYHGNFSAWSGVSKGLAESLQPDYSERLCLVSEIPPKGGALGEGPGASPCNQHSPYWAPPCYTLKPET

[2] = target: T1, human IL-2 receptor (IL-2Rα, IL-2Rβ, …); experiment: cell-based or functional assay; remark: listed apart in the source
[3] = target: T2, CD8 on CD8+ T cells (UniProt P01732 22-235); experiment: FACS
T2 construct: whole, on cells
T2 sequence (P01732 22-235): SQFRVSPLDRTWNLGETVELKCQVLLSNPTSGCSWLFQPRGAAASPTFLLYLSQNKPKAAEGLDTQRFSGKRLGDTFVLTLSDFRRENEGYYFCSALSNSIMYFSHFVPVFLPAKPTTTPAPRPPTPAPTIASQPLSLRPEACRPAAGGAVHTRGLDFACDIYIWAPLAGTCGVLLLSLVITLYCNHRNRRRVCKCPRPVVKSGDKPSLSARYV

[4] = target: IL-23 receptor complex (IL-12Rβ1, IL-23R) (UniProt P42701 24-662; Q5VWK5 24-629, limits assumed); experiment: cell-based or functional assay
Sequence of IL-23 receptor complex (IL-12Rβ1, IL-23R) (Q5VWK5 24-629 limits assumed, chain 2 of 2, other chains not shown): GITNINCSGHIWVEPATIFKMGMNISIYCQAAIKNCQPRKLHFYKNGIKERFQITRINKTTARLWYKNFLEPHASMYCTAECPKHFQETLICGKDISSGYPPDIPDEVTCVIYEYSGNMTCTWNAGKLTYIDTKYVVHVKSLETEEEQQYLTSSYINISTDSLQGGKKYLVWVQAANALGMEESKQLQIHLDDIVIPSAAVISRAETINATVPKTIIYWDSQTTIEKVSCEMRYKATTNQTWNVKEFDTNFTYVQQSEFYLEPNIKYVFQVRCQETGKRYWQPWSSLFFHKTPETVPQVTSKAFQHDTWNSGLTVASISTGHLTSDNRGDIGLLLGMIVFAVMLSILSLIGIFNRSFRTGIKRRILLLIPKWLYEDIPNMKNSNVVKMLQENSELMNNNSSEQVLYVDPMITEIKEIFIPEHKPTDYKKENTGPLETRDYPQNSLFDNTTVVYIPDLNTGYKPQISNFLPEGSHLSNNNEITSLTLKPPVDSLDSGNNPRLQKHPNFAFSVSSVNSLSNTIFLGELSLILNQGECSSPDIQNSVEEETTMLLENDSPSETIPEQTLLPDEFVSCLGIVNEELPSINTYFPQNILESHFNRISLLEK

Percent IL-2 signal transduction (HEK-IL-2 reporter assay) [1]: 0%
Percent T-cell proliferation (PBMC proliferation assay) [1]: 0%
B1: anti-CD3 antibody (made in-house) (antibody, V domains shown)
VH: EVQLVESGGGLVQPGRSLRLSCTASGFTFSYFWMNWVRQAPGKGLEWVGEIRLRSDNYATHYAESVKGRFTISRDDSKSIAYLQMNSLKTEDTALYYCTRDWEFTYWGQGTTVTVSS
VL: EIVMTQSPGTLSLSPGESATLSCSASLSVSFMHWFQQKPGHAPRLLIYRTSNLASGVPDRFSGSGSGTDFTLTISRLEPEDFAVYYCQQRSSDPPTFGQGTRLEIKR

Percent IL-2 signal transduction (HEK-IL-2 reporter assay) [1]: 11%
Percent T-cell proliferation (PBMC proliferation assay) [1]: 39%
B2: IL-2 mutant-Fc-CD3 Ab (other, not shown: a dimerising Fc or GST)
light: EIVMTQSPGTLSLSPGESATLSCSASLSVSFMHWFQQKPGHAPRLLIYRTSNLASGVPDRFSGSGSGTDFTLTISRLEPEDFAVYYCQQRSSDPPTFGQGTRLEIKRTVAAPSVFIFPPSDEQLKSGTASVVCLLNNFYPREAKVQWKVDNALQSGNSQESVTEQDSKDSTYSLSSTLTLSKADYEKHKVYACEVTHQGLSSPVTKSFNRGEC
heavy: EVQLVESGGGLVQPGRSLRLSCTASGFTFSYFWMNWVRQAPGKGLEWVGEIRLRSDNYATHYAESVKGRFTISRDDSKSIAYLQMNSLKTEDTALYYCTRDWEFTYWGQGTTVTVSSAS
chain: APTSSSTKKTQLQLEHLLLDLQMILNGINNYKNPKLTDMLTFEFYMPKKATELKHLQCLERELKPLEEVLNLAQSKNFHLRPRDLISNINVIVLELKGSETTFMCEYADETATIVEFLNRWITFCQSIISTLT

Percent IL-2 signal transduction (HEK-IL-2 reporter assay) [1]: 2.5%
Percent T-cell proliferation (PBMC proliferation assay) [1]: 45%
B3: Fab-IL-2 mutant-Fc-CD3 Ab (other)
light: B2 light
heavy 1: EVQLVESGGGLVQPGRSLRLSCTASGFTFSYFWMNWVRQAPGKGLEWVGEIRLRSDNYATHYAESVKGRFTISRDDSKSIAYLQMNSLKTEDTALYYCTRDWEFTYWGQGTTVTVSSASTKGPSVFPLAPSSKSTSGGTAALGCLVKDYFPEPVTVSWNSGALTSGVHTFPAVLQSSGLYSLSSVVTVPSSSLGTQTYICNVNHKPSNTKVDKKVEPKSCDKTHTCPPCPAPEKKGGPSVFLFPPKPKDTLMISRTPEVTCVVVDVSHEDPEVKFNWYVDGVEVHNAKTKPREEQYNSTYRVVSVLTVLHQDWLNGKEYKCKVSNKALPAPIEKTISKAKGQPREPQVYVLPPSREEMTKNQVSLLCLVKGFYPSDIAVEWESNGQPENRYMTWPPVLDSDGSFFLYSKLTVDKSRWQQGNVFSCSVMHEALHNHYTQKSLSLSPGK
heavy 2: EVQLVESGGGLVQPGRSLRLSCTASGFTFSYFWMNWVRQAPGKGLEWVGEIRLRSDNYATHYAESVKGRFTISRDDSKSIAYLQMNSLKTEDTALYYCTRDWEFTYWGQGTTVTVSSASTKGPSVFPLAPSSKSTSGGTAALGCLVKDYFPEPVTVSWNSGALTSGVHTFPAVLQSSGLYSLSSVVTVPSSSLGTQTYICNVNHKPSNTKVDKKVEPKSCDKPAPTSSSTKKTQLQLEHLLLDLQMILNGINNYKNPKLTDMLTFEFYMPKKATELKHLQCLERELKPLEEVLNLAQSKNFHLRPRDLISNINVIVLELKGSETTFMCEYADETATIVEFLNRWITFCQSIISTLTDKTHTCPPCPAPEDEGGPSVFLFPPKPKDTLMISRTPEVTCVVVDVSHEDPEVKFNWYVDGVEVHNAKTKPREEQYNSTYRVVSVLTVLHQDWLNGKEYKCKVSNKALPAPIEKTISKAKGQPREPQVYVYPPSREEMTKNQVSLTCLVKGFYPSDIAVEWESNGQPENNYKTTPPVLDEDGSFALVSKLTVDKSRWQQGNVFSCSVMHEALHNHYTQKSLSLSPGK

Percent IL-2 signal transduction (HEK-IL-2 reporter assay) [2]: 0%
Percent IL-2 signal transduction (HEK-PD-1-IL-2 reporter assay) [2]: 0%
B4: anti-PD-1 antibody nivolumab (Opdivo) (antibody, human IgG4 S228P, kappa, V domains shown)
VH: QVQLVESGGGVVQPGRSLRLDCKASGITFSNSGMHWVRQAPGKGLEWVAVIWYDGSKRYYADSVKGRFTISRDNSKNTLFLQMNSLRAEDTAVYYCATNDDYWGQGTLVTVSS
VL: EIVLTQSPATLSLSPGERATLSCRASQSVSSYLAWYQQKPGQAPRLLIYDASNRATGIPARFSGSGSGTDFTLTISSLEPEDFAVYYCQQSSNWPRTFGQGTKVEIKR

binding result [3]: no binding
IL-23 biological activity (IFN-γ release), CD4+ T cells [4]: 34%
IL-23 biological activity (IFN-γ release), CD8+ T cells [4]: 21%
B5: Fab-IL-23(WT)-Fc-CD4 Ab (other)
light: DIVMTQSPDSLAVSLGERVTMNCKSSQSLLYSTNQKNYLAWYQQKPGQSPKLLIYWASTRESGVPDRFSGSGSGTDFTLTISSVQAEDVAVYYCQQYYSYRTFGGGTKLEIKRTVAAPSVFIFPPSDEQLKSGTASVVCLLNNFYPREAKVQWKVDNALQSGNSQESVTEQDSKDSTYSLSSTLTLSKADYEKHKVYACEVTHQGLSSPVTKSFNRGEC
heavy 1: QVQLQQSGPEVVKPGASVKMSCKASGYTFTSYVIHWVRQKPGQGLDWIGYINPYNDGTDYDEKFKGKATLTSDTSTSTAYMELSSLRSEDTAVYYCAREKDNYATGAWFAYWGQGTLVTVSSASTKGPSVFPLAPSSKSTSGGTAALGCLVKDYFPEPVTVSWNSGALTSGVHTFPAVLQSSGLYSLSSVVTVPSSSLGTQTYICNVNHKPSNTKVDKKVEPKSCDKTHTCPPCPAPEKKGGPSVFLFPPKPKDTLMISRTPEVTCVVVDVSHEDPEVKFNWYVDGVEVHNAKTKPREEQYNSTYRVVSVLTVLHQDWLNGKEYKCKVSNKALPAPIEKTISKAKGQPREPQVYVLPPSREEMTKNQVSLLCLVKGFYPSDIAVEWESNGQPENRYMTWPPVLDSDGSFFLYSKLTVDKSRWQQGNVFSCSVMHEALHNHYTQKSLSLSPGK
heavy 2: QVQLQQSGPEVVKPGASVKMSCKASGYTFTSYVIHWVRQKPGQGLDWIGYINPYNDGTDYDEKFKGKATLTSDTSTSTAYMELSSLRSEDTAVYYCAREKDNYATGAWFAYWGQGTLVTVSSASTKGPSVFPLAPSSKSTSGGTAALGCLVKDYFPEPVTVSWNSGALTSGVHTFPAVLQSSGLYSLSSVVTVPSSSLGTQTYICNVNHKPSNTKVDKKVEPKSCDKPGSGIWELKKDVYVVELDWYPDAPGEMVVLTCDTPEEDGITWTLDQSSEVLGSGKTLTIQVKEFGDAGQYTCHKGGEVLSHSLLLLHKKEDGIWSTDILKDQKEPKNKTFLRCEAKNYSGRFTCWWLTTISTDLTFSVKSSRGSSDPQGVTCGAATLSAERVRGDNKEYEYSVECQEDSACPAAEESLPIEVMVDAVHKLKYENYTSSFFIRDIIKPDPPKNLQLKPLKNSRQVEVSWEYPDTWSTPHSYFSLTFCVQVQGKSKREKKDRVFTDKTSATVICRKNASISVRAQDRYYSSSWSEWASVPCSGGGGSGGGGSGGGGSGGGGSGRAVPGGSSPAWTQCQQLSQKLCTLAWSAHPLVGHMDLREEGDEETTNDVPHIQCGDGCDPQGLRDNSQFCLQRIHQGLIFYEKLLGSDIFTGEPSLLPDSPVGQLHASLLGLSQLLQPEGHHWETQQIPSLSPSQPWQRLLLRFKILRSLQAFVAVAARVFAHGAATLSPDKTHTCPPCPAPEDEGGPSVFLFPPKPKDTLMISRTPEVTCVVVDVSHEDPEVKFNWYVDGVEVHNAKTKPREEQYNSTYRVVSVLTVLHQDWLNGKEYKCKVSNKALPAPIEKTISKAKGQPREPQVYVYPPSREEMTKNQVSLTCLVKGFYPSDIAVEWESNGQPENNYKTTPPVLDEDGSFALVSKLTVDKSRWQQGNVFSCSVMHEALHNHYTQKSLSLSPGK
notes: copies: 2 + 1 + 1

binding result [3]: no binding
IL-23 biological activity (IFN-γ release), CD4+ T cells [4]: 6.8%
IL-23 biological activity (IFN-γ release), CD8+ T cells [4]: 0%
B6: Fab-IL-23(E59A/F60A)-Fc-CD4 Ab (other)
light: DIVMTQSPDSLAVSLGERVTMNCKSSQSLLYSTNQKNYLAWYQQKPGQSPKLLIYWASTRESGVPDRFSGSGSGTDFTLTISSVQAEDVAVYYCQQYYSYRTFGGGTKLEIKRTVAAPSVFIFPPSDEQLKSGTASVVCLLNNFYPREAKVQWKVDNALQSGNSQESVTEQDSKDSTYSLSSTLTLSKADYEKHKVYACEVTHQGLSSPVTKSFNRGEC
heavy 1: B5 heavy 1
heavy 2: B5 heavy 2 with E290A, F291A

binding result [3]: no binding
IL-23 biological activity (IFN-γ release), CD4+ T cells [4]: 24%
IL-23 biological activity (IFN-γ release), CD8+ T cells [4]: 2%
B7: Fab-IL-23(E59A)-Fc-CD4 Ab (other)
light: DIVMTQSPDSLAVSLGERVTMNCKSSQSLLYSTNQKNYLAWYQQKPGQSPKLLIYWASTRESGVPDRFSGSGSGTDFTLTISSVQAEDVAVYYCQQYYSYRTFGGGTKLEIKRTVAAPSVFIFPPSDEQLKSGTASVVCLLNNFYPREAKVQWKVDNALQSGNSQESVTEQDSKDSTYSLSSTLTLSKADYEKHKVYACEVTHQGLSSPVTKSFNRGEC
heavy 1: B5 heavy 1
heavy 2: B5 heavy 2 with E290A
notes: copies: 2 + 1 + 1

binding result [3]: no binding
IL-23 biological activity (IFN-γ release), CD4+ T cells [4]: 29%
IL-23 biological activity (IFN-γ release), CD8+ T cells [4]: 1.5%
B8: Fab-IL-23(F60A)-Fc-CD4 Ab (other)
light: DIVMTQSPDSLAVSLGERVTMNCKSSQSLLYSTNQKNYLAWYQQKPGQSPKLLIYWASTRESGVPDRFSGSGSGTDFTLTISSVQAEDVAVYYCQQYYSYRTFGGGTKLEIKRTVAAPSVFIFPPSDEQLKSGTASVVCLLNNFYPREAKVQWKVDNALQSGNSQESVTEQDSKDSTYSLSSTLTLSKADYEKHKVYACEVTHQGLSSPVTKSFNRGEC
heavy 1: B5 heavy 1
heavy 2: B5 heavy 2 with F291A
notes: copies: 2 + 1 + 1
